Values quoted from earlier work in PMC8035261.

Legend:
[1] = target: SV2 (UniProt Q9Z2I6)
[2] = target: FGFR3 (Homo sapiens) (UniProt P22607)
Chain of UniProt P22607 (P22607 23-806): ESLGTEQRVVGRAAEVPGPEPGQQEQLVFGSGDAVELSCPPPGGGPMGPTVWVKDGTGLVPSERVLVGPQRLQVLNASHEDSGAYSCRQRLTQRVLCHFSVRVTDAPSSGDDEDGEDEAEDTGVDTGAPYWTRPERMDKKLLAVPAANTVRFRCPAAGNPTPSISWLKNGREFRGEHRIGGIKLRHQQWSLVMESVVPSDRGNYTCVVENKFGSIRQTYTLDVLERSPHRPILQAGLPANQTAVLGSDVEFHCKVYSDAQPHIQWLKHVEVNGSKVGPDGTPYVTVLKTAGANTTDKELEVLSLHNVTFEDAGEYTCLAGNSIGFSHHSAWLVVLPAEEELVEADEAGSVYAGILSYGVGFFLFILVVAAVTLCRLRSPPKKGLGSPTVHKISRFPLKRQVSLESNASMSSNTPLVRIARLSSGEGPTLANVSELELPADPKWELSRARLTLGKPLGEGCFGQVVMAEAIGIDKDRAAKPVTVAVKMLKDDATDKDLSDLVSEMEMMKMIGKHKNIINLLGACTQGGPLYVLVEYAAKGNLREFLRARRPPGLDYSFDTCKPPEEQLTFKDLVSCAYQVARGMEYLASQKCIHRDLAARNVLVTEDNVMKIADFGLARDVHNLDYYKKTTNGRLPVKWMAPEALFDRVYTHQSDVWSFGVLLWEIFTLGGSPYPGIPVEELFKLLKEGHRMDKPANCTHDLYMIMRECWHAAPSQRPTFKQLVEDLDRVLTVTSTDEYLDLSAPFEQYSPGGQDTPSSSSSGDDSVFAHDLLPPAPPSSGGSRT

Chain of UniProt Q9Z2I6 (Q9Z2I6 whole entry): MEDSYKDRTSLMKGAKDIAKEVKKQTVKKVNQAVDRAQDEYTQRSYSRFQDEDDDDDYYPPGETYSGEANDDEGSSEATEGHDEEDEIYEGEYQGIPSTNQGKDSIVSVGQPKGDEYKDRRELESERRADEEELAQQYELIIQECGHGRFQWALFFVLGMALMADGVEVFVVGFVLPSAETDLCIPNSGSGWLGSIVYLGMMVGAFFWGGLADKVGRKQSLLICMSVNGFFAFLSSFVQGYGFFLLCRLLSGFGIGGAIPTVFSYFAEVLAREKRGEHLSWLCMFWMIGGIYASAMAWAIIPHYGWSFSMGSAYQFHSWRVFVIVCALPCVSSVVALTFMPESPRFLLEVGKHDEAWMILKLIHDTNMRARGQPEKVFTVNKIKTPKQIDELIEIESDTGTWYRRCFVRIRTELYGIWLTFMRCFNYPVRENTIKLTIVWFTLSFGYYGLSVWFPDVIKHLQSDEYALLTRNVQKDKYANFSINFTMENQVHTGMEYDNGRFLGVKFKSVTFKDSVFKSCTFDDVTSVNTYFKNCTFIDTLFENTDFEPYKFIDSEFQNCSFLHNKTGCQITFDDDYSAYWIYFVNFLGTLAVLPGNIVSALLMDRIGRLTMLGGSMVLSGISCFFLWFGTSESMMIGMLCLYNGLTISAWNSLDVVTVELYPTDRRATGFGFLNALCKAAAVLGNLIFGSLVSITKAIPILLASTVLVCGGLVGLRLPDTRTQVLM

Question: Which results are given for BoNT/A (from UniProt P0DPI1)?
Answer: Kd [1]: 100 nM; Kd [2]: 15 nM
